Measurements as given in PMC9482650, “Quantitative fragmentomics allow affinity mapping of interactomes” (Nature Communications, 2022).

target: T1, ARHGEF11, O15085; experiment: holdup assay; design: key: below the threshold = too weak to quantify, mostly under pKd 3.1 to 4; settings: plain residues with an end cap or a label only (N-terminal biotin on a linker: ado-ado)
T1 sequence (O15085 42-136, limits assumed, looked up): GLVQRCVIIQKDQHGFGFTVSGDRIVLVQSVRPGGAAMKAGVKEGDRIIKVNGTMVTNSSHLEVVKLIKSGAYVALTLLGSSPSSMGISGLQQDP

Binder | pKd
KSRPENGTVC [TMEM178B, H3BS89] | 3.89

target: T2, RADIL, Q96JH8; experiment: holdup assay; design: key: below the threshold = too weak to quantify, mostly under pKd 3.1 to 4; settings: plain residues with an end cap or a label only (N-terminal biotin on a linker: ado-ado)
T2 sequence (Q96JH8 971-1071, limits assumed, looked up): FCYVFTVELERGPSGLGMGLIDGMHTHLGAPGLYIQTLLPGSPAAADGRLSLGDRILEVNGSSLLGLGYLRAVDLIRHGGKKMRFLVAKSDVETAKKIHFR

Binder | pKd
KSRPENGTVC [TMEM178B, H3BS89] | below the threshold

target: Inadl_2, Q8NI35; experiment: holdup assay; design: key: below the threshold = too weak to quantify, mostly under pKd 3.1 to 4; settings: plain residues with an end cap or a label only (N-terminal biotin on a linker: ado-ado)
Sequence (Q8NI35 238-335): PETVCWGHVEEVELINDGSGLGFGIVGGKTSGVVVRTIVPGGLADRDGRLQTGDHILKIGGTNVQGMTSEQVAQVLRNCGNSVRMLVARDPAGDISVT

Binder | pKd
KSRPENGTVC [TMEM178B, H3BS89] | below the threshold

target: PARD3_3, Q8TEW0; experiment: holdup assay; design: key: below the threshold = too weak to quantify, mostly under pKd 3.1 to 4; settings: plain residues with an end cap or a label only (N-terminal biotin on a linker: ado-ado)
Sequence (Q8TEW0 582-685): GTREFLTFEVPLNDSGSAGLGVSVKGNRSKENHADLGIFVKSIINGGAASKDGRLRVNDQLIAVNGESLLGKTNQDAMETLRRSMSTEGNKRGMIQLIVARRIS

Binder | pKd
KSRPENGTVC [TMEM178B, H3BS89] | below the threshold

target: T3, DLG3_3, Q92796; experiment: holdup assay; design: key: below the threshold = too weak to quantify, mostly under pKd 3.1 to 4; settings: plain residues with an end cap or a label only (N-terminal biotin on a linker: ado-ado)
T3 sequence (Q92796 374-475, limits assumed, looked up): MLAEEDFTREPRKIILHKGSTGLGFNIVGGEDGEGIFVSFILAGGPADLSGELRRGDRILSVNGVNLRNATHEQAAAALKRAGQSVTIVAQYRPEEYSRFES

Binder | pKd
KSRPENGTVC [TMEM178B, H3BS89] | below the threshold

target: T4, LNX2_2, Q8N448; experiment: holdup assay; design: key: below the threshold = too weak to quantify, mostly under pKd 3.1 to 4; settings: plain residues with an end cap or a label only (N-terminal biotin on a linker: ado-ado)
T4 sequence (Q8N448 334-432, limits assumed, looked up): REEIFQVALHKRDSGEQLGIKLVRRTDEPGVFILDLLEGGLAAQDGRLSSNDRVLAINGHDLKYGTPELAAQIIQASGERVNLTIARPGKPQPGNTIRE

Binder | pKd
KSRPENGTVC [TMEM178B, H3BS89] | 4.32

target: MAGI2_2, Q86UL8; experiment: holdup assay; design: key: below the threshold = too weak to quantify, mostly under pKd 3.1 to 4; settings: plain residues with an end cap or a label only (N-terminal biotin on a linker: ado-ado)
Sequence (Q86UL8 410-522): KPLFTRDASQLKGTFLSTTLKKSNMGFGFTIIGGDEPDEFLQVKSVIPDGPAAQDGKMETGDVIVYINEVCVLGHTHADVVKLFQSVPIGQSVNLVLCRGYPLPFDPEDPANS

Binder | pKd
KSRPENGTVC [TMEM178B, H3BS89] | below the threshold

target: NOS1, P29475; experiment: holdup assay; design: key: below the threshold = too weak to quantify, mostly under pKd 3.1 to 4; settings: plain residues with an end cap or a label only (N-terminal biotin on a linker: ado-ado)
Sequence (P29475 9-101): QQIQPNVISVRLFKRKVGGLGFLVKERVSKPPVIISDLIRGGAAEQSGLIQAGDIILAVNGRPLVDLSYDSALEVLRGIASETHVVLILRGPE

Binder | pKd
KSRPENGTVC [TMEM178B, H3BS89] | 3.47

target: IL16_3, Q14005; experiment: holdup assay; design: key: below the threshold = too weak to quantify, mostly under pKd 3.1 to 4; settings: plain residues with an end cap or a label only (N-terminal biotin on a linker: ado-ado)
Sequence (Q14005 1107-1207): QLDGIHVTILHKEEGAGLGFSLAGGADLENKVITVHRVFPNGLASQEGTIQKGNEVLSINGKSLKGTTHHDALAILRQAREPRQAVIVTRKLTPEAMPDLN

Binder | pKd
KSRPENGTVC [TMEM178B, H3BS89] | below the threshold

target: FRMPD4, Q14CM0; experiment: holdup assay; design: key: below the threshold = too weak to quantify, mostly under pKd 3.1 to 4; settings: plain residues with an end cap or a label only (N-terminal biotin on a linker: ado-ado)
Sequence (Q14CM0 67-160): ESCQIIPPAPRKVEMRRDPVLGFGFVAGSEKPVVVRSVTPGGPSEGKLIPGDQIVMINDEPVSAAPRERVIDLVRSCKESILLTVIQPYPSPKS

Binder | pKd
KSRPENGTVC [TMEM178B, H3BS89] | 3.49

target: GRIP2_5, Q9C0E4; experiment: holdup assay; design: key: below the threshold = too weak to quantify, mostly under pKd 3.1 to 4; settings: plain residues with an end cap or a label only (N-terminal biotin on a linker: ado-ado)
Sequence (Q9C0E4 544-642): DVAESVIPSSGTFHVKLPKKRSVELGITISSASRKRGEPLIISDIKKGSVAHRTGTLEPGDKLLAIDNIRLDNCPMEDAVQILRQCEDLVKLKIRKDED

Binder | pKd
KSRPENGTVC [TMEM178B, H3BS89] | below the threshold

target: T5, NHERF3_1, Q5T2W1; experiment: holdup assay; design: key: below the threshold = too weak to quantify, mostly under pKd 3.1 to 4; settings: plain residues with an end cap or a label only (N-terminal biotin on a linker: ado-ado)
T5 sequence (Q5T2W1 4-100, limits assumed, looked up): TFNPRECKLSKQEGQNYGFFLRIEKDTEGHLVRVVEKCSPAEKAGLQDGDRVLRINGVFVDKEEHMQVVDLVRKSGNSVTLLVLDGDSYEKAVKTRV

Binder | pKd
KSRPENGTVC [TMEM178B, H3BS89] | 3.62

target: MAST2, Q6P0Q8; experiment: holdup assay; design: key: below the threshold = too weak to quantify, mostly under pKd 3.1 to 4; settings: plain residues with an end cap or a label only (N-terminal biotin on a linker: ado-ado)
Sequence (Q6P0Q8 1099-1202): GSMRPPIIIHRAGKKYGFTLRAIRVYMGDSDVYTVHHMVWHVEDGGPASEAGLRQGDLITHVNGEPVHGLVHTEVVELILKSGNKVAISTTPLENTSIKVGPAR

Binder | pKd
KSRPENGTVC [TMEM178B, H3BS89] | 4.21

target: T6, GRIP1_4, Q9Y3R0; experiment: holdup assay; design: key: below the threshold = too weak to quantify, mostly under pKd 3.1 to 4; settings: plain residues with an end cap or a label only (N-terminal biotin on a linker: ado-ado)
T6 sequence (Q9Y3R0 467-571, limits assumed, looked up): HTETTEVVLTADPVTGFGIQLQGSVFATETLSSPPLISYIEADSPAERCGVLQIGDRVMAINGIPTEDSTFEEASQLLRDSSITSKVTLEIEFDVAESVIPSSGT

Binder | pKd
KSRPENGTVC [TMEM178B, H3BS89] | below the threshold

target: T7, LNX2_3, Q8N448; experiment: holdup assay; design: key: below the threshold = too weak to quantify, mostly under pKd 3.1 to 4; settings: plain residues with an end cap or a label only (N-terminal biotin on a linker: ado-ado)
T7 sequence (Q8N448 463-564, limits assumed, looked up): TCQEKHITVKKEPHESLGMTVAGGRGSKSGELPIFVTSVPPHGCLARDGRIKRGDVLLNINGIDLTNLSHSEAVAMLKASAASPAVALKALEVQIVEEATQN

Binder | pKd
KSRPENGTVC [TMEM178B, H3BS89] | below the threshold

target: T8, TIAM2, Q8IVF5; experiment: holdup assay; design: key: below the threshold = too weak to quantify, mostly under pKd 3.1 to 4; settings: plain residues with an end cap or a label only (N-terminal biotin on a linker: ado-ado)
T8 sequence (Q8IVF5 885-986, limits assumed, looked up): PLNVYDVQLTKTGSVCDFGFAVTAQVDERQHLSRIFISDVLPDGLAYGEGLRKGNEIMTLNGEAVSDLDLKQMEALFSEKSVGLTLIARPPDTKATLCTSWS

Binder | pKd
KSRPENGTVC [TMEM178B, H3BS89] | below the threshold

target: LAP2, Q96RT1; experiment: holdup assay; design: key: below the threshold = too weak to quantify, mostly under pKd 3.1 to 4; settings: plain residues with an end cap or a label only (N-terminal biotin on a linker: ado-ado)
Sequence (Q96RT1 other isoform, or with tags, fused parts or gaps): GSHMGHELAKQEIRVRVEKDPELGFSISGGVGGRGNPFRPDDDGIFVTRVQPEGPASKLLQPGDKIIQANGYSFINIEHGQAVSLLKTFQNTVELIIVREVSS

Binder | pKd
KSRPENGTVC [TMEM178B, H3BS89] | below the threshold

target: DLG1_2, Q12959; experiment: holdup assay; design: key: below the threshold = too weak to quantify, mostly under pKd 3.1 to 4; settings: plain residues with an end cap or a label only (N-terminal biotin on a linker: ado-ado)
Sequence (Q12959 314-412): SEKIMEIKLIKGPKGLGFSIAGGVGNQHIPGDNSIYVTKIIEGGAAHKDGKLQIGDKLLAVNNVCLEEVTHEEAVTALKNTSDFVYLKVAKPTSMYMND

Binder | pKd
KSRPENGTVC [TMEM178B, H3BS89] | below the threshold

target: T9, MPP2, Q14168; experiment: holdup assay; design: key: below the threshold = too weak to quantify, mostly under pKd 3.1 to 4; settings: plain residues with an end cap or a label only (N-terminal biotin on a linker: ado-ado)
T9 sequence (Q14168 180-250, limits assumed, looked up): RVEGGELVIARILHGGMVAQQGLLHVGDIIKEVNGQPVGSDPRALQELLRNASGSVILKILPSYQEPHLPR

Binder | pKd
KSRPENGTVC [TMEM178B, H3BS89] | below the threshold

target: T10, LIN7B, Q9HAP6; experiment: holdup assay; design: key: below the threshold = too weak to quantify, mostly under pKd 3.1 to 4; settings: plain residues with an end cap or a label only (N-terminal biotin on a linker: ado-ado)
T10 sequence (Q9HAP6 88-185, limits assumed, looked up): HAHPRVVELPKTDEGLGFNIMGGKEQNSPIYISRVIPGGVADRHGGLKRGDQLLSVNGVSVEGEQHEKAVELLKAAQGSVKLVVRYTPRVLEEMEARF

Binder | pKd
KSRPENGTVC [TMEM178B, H3BS89] | below the threshold

target: T11, GRIP1_5, Q9Y3R0; experiment: holdup assay; design: key: below the threshold = too weak to quantify, mostly under pKd 3.1 to 4; settings: plain residues with an end cap or a label only (N-terminal biotin on a linker: ado-ado)
T11 sequence (Q9Y3R0 568-668, limits assumed, looked up): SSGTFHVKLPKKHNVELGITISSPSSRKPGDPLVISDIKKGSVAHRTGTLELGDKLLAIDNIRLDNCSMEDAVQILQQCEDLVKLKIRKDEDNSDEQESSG

Binder | pKd
KSRPENGTVC [TMEM178B, H3BS89] | below the threshold

target: GIPC2, Q8TF65; experiment: holdup assay; design: key: below the threshold = too weak to quantify, mostly under pKd 3.1 to 4; settings: plain residues with an end cap or a label only (N-terminal biotin on a linker: ado-ado)
Sequence (Q8TF65 112-203): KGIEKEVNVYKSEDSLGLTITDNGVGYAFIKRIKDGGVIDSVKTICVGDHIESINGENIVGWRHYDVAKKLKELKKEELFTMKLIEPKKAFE

Binder | pKd
KSRPENGTVC [TMEM178B, H3BS89] | below the threshold

target: T12, DVL3, Q92997; experiment: holdup assay; design: key: below the threshold = too weak to quantify, mostly under pKd 3.1 to 4; settings: plain residues with an end cap or a label only (N-terminal biotin on a linker: ado-ado)
T12 sequence (Q92997 244-331, limits assumed, looked up): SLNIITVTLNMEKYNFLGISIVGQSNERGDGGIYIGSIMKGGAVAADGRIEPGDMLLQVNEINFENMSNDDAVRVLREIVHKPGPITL

Binder | pKd
KSRPENGTVC [TMEM178B, H3BS89] | below the threshold

target: TJP2_1, Q9UDY2; experiment: holdup assay; design: key: below the threshold = too weak to quantify, mostly under pKd 3.1 to 4; settings: plain residues with an end cap or a label only (N-terminal biotin on a linker: ado-ado)
Sequence (Q9UDY2 24-128): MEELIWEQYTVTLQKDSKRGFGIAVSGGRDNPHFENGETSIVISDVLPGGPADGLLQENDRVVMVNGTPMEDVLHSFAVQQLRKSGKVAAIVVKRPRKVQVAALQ

Binder | pKd
KSRPENGTVC [TMEM178B, H3BS89] | below the threshold

target: IL16_4, Q14005; experiment: holdup assay; design: key: below the threshold = too weak to quantify, mostly under pKd 3.1 to 4; settings: plain residues with an end cap or a label only (N-terminal biotin on a linker: ado-ado)
Sequence (Q14005 1229-1329): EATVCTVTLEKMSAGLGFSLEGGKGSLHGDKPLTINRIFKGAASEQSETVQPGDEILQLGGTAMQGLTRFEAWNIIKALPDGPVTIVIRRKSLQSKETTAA

Binder | pKd
KSRPENGTVC [TMEM178B, H3BS89] | below the threshold

target: SNX27, Q96L92; experiment: holdup assay; design: key: below the threshold = too weak to quantify, mostly under pKd 3.1 to 4; settings: plain residues with an end cap or a label only (N-terminal biotin on a linker: ado-ado)

Binder | pKd
KSRPENGTVC [TMEM178B, H3BS89] | 3.58
